The text below walks through data of patent US20140120109A1 (Regeneron, published 2014).

The target in assay [1] is T1, full length human TL1A expressed on HEK293 cells (human, UniProt O95150 1-251).
T1 construct: also called HEK293/hTL1A; cell-surface hTL1A
T1 sequence: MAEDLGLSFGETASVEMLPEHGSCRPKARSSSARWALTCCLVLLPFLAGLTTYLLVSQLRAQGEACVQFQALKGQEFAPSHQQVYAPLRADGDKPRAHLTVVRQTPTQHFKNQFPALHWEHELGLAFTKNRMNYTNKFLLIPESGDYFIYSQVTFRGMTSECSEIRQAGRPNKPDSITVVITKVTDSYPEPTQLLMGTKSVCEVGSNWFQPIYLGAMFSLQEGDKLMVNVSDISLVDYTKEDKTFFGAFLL
Nature of the assay: flow, HEK293/hTL1A, mAb 0.1 ug/ml + 0.1 ug/ml soluble hTL1A. As for the experimental part:
(§1) Human embryonic kidney 293 cells stably transfected to over-express cell-surface hTL1A were first stained in a flow cytometric experiment with eight anti-hTL1A antibodies at four concentrations (1, 0.1, 0.01, and 0.003 μg/ml). […] The lowest antibody concentration providing significant staining levels was then used in a competition binding experiment. A negative isotype control antibody (human IgG4) was used at 1 μg/ml to define the background signal. For the competition experiment, eight antibody samples, at the minimal concentrations identified above, were first treated with soluble hTL1A expressed from CHO cells at concentrations ranging from 0.03 μg/ml to 10 μg/ml. After pre-incubation for 30 min on ice, the antibody/hTL1A mixture was added to 293/HEK-hTL1A cells that had been isolated by centrifugation in a 96-well conical plate. After incubation for an additional 10 minutes on ice, the cells were washed. The secondary reagent, anti-h Fcγ-APC F(ab′)₂, was added to all wells at a 200-fold dilution to detect bound antibodies. Samples were incubated for 15 minutes on ice, away from light, and then washed. Cells were processed on an BD™ LSR II Flow Cytometer (BD Biosciences) to detect anti-hTL1A antibodies bound to the cell surface, and data were analyzed using FlowJo software (version 8.8.6; Tree Star Inc.). Maximum signal: Anti-hTL1A antibody binding in the absence of soluble hTL1A; Minimum signal: Signal recorded when […] of isotype control antibody was added in place of the anti-hTL1A antibody. NT: Not tested.

Assay [2] has as its target T1, full length human TL1A expressed on …. The assay is described as follows: flow, HEK293/hTL1A, mAb 0.1 ug/ml + 3 ug/ml soluble hTL1A. As for the experimental part: as §1
Assay [3] shares this target. The assay is described as follows: flow, HEK293/hTL1A, mAb 0.1 ug/ml + 0.03 ug/ml soluble hTL1A. As for the experimental part: as §1
Assay [4] shares this target. The assay is described as follows: flow, HEK293/hTL1A, mAb 0.1 ug/ml + 0.3 ug/ml soluble hTL1A. Here is the method: as §1
Assay [5] shares this target. The assay is described as follows: flow, HEK293/hTL1A, mAb 0.1 ug/ml, no soluble hTL1A (maximum signal). Here is the method: as §1
The target of assay [6] is T2, full length rat TL1A expressed on HEK293 cells (rat, UniProt Q8K3Y7 1-252).
T2 sequence: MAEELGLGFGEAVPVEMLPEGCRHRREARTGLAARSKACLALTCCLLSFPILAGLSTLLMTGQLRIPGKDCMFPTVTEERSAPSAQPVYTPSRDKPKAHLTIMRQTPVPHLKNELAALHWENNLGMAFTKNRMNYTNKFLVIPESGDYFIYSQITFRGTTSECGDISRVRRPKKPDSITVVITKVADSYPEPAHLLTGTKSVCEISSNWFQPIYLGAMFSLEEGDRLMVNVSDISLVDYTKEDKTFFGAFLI
Nature of the assay: cell-based or functional assay.

The target of assay [7] is T3, mouse TL1A, soluble, CHO-expressed, residues 76-252 of SEQ ID NO:250 with N-terminal His6-tag (mouse, UniProt Q5UBV8 76-252).
T3 construct: also called mTL1A; mTL1A (CHO)
T3 sequence: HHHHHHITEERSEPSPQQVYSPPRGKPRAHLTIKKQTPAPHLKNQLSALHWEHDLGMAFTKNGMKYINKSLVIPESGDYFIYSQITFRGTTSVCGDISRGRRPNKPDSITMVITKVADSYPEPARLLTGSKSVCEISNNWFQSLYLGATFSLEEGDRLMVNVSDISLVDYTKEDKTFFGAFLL
The assay is described as follows: SPR 25C, mAb captured. The essentials:
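Biacore T100 SPR with captured mAb and soluble TL1A/Fhm analyte; ka and kd fitted to a 1:1 model assuming monomeric TL1A. KD = kd/ka; t1/2 (min) = ln2/(60·kd).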

For assay [8], the target named is T1, full length human TL1A expressed on …. Nature of the assay: flow, HEK293/hTL1A, mAb 1 ug/ml + 0.03 ug/ml soluble hTL1A. As for the experimental part:
as §1

Assay [9] shares this target. The assay is described as follows: flow, HEK293/hTL1A, mAb 1 ug/ml, no soluble hTL1A (maximum signal). Here is the method: as §1
Assay [10] shares this target. Nature of the assay: flow, HEK293/hTL1A, mAb 1 ug/ml + 3 ug/ml soluble hTL1A. Here is the method:
as §1

B1: H4H1804N (antibody, human IgG4 S228P, V domains shown)
VH: QVQLHQWGAGLLKPSETLSLTCAVSGVSFSDYHWAWIRQSPGKGLEWIGDINHRGRTNYNPSLKSRVTISLDTSGNPFSLKLTSVTAADTAVYYCARDFPNWVFDSWGQGILVTVSS
VL: EIVLSQSPGTLSLSPGERATLSCRASQSVSSSFLAWYQQYPGQAPRLLIYGASRRATGIPDRFRGSGSGTDFTLTISRLEPEDFAVYYCQQYGSSPLTFGGGTKVENK
notes: human IgG4(S108P) form of H2M1804N
B1: the MFI amounted to 51.1 in assay [1]; 28.9 in assay [2]; 126 in assay [3]; 33.5 in assay [4]; 127 in assay [5]. Also, the “IC50, reporter + 10,000 TL1A cells” value in assay [6] stood at 3.99 nM.

B2: H4H1805N (antibody, human IgG4 S228P, V domains shown)
VH: QVQLQQWGAGLLKPSETLSLTCAVYGGSFTGFYWSWIRQPPGKGLEWIGEINHRGNTNYNPSLKSRVTMSVDTSKNQFSLNMISVTAADTAMYFCASPFYDFWSGSDYWGQGTLVTVSS
VL: DIMLTQTPLTSPVTLGQPASISCKSSQSLVHSDGNTYLSWLQQRPGQPPRLLFYKISNRFSGVPDRFSGSGAGTDFTLKISRVEAEDVGVYYCMQATQFPLTFGGGTKVEIK
notes: human IgG4(S108P) form of H2M1805N
With B2, the MFI in [1] was found to be 60.2; in [2] it was 23.6; in [3], 156; in assay [4], 36.8; in [5] it was 158. Besides, the binding result in assay [7] is given as “no binding (tested: up to 100 nM)”.

B3: H4H1681N (antibody, human IgG4 S228P, V domains shown)
VH: EVQLLESGGGLVQPGKSLRLSCAVSGFTFSTYGMNWVRQAPGKGLEWVSSISGTGRTTYHADSVQGRFTVSRDNSKNILYLQMNSLRADDTAVYFCTKERGDYYYGVFDYWGQGTLVTVSS
VL: DIQMTQSPSTLSASVGDRVTITCRASQTISSWLAWYQQTPEKAPKLLIYAASNLQSGVPSRFSGSGSGTEFTLTISSLQPDDFATYYCQQYHRSWTFGQGTKVEIT
Consider B3, for which the MFI in [8] was found to be 318; in assay [9] it was 320; in assay [10] it was 28.5. For the same molecule, the binding result in assay [7] is listed as “no binding (tested: up to 100 nM)”.

B4: H4H1704N (antibody, human IgG4 S228P, V domains shown)
VH: EVQLVESGGGLVQPGGSLRLSCAVSGFTFSSYWMSWVRQAPGKGLEWVANIKEDGSEKNYVDSVKGRFTLSSDNAKNSLYLQMNSLRAEDTAVYYCAREDYDSYYKYGMDVWGQGTAVIVSS
VL: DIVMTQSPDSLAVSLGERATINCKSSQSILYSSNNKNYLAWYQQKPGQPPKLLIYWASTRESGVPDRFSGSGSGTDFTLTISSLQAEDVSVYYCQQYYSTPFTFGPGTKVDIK
notes: human IgG4(S108P) form of H2M1704N
As usually defined, the Kd is the concentration at which binding is half-saturated. A higher Kd goes with lower affinity. B4: the MFI in assay [1] stood at 132; in assay [2], 22.6; in assay [3], 163; in assay [4], 31.5; in assay [5] it was 116. For the same molecule, in assay [7], the Kd is 0.194 nM. In addition, in assay [7], the t1/2 stood at 46 min.

B5: H4H1742P (antibody, human IgG4 S228P, V domains shown)
VH: EVQLVESGGGLVQPGGSLRLSCAASGFTFSNYVMNWVRQAPGKGLEWVSVISGSGGSTHYADSVKGRFTISRDNSKDALYLQMNSLRAEDTAVYYCAKGPLEAYYYYNGMDVWGQGTTVTVSS
VL: DIQLTQSPSFLSASVGDRVTITCWASQAISSYLAWYQHKPGRAPKLLIYSTSTLQSGVPSRFSGSGSGTEFTLTISSLQPEDFATYYCQQLNSYPTFGQGTKLEIK
For the molecule B5, the figures for the MFI in assay [8], in [9] and in assay [10] were 126, 126 and 19.9, respectively.

B6: H4H1725P (antibody, human IgG4 S228P, V domains shown)
VH: QVQLVQSGAEVKKPGASVKVSCKASGYTFTGYYMHWVRQAPGQGLEWMGWIKPKSGGTNYVQKFQGRVTMTRDTSINTAYMELNNLKSDDTAVYYCATGGSQDASDFWGQGTMVTVSS
VL: DIQMTQSPSSVSASVGGRVTITCRASQDISIWLAWYQQKPGKAPNLLIYAASSLQSGVPSRFSGSGSGTDFTLTISSLQPEDFATYYCQQADSFPLTFGGGTKVEIK
As to B6, the MFI in assay [1] turned out to be 84.5; in assay [2] it was 34.9; in assay [3] it was 207; in assay [4] it was 40.7; in assay [5] it was 211. In addition, the “IC50, reporter + 10,000 TL1A cells” value in assay [6] was determined as 190 nM.

B7: H4H1817N (antibody, human IgG4 S228P, V domains shown)
VH: QVQLQQWGAGLLKPSETLSLTCAVSGGSFSDYFWTWIRQPPGKGLEWIGEISHSGRTNYNPSLKSRVTISVDTSMSQFSLKMTSVTAADSAVYYCARDYPNWVFDYWGQGTLVTVSS
VL: EIELTQSPGTLSLSPGEGATLSCRASQSVFNSYLAWYQQKPGQAPRLLIYGASRRATGIPDRFSGSGSGTDFTLTISRLEPGDFAVYFCQQYGNSPLTFGGGTKVEIK
notes: human IgG4(S108P) form of H2M1817N
In the case of B7, the MFI in assay [8] is 85.3; in assay [9], 110; in assay [10], 25.2. In addition, in [7], the binding result is recorded as “no binding (tested: up to 100 nM)”. Further, the “IC50, reporter + 10,000 TL1A cells” value in assay [6] is 95 nM.

B8: H4H1745P (antibody, human IgG4 S228P, V domains shown)
VH: EVQLVESGGGLVQPGGSLRLSCAASGFTFSSYAMTWVRQAPGKGLEWVSGVSGRGGSTYYADSVKGRFTISRDNSKNTLYLQMNSLRAEDTAVYYCAYWDISSFDYWGQGTLVTVSS
VL: DIQLTQSPSFLSASVGDRVTITCWASQGISTYLAWYQQKPGKTPKLLIYAASTLQSGVPSRFSGSGSGTDFTLTISSLQPEDFATYYCQQFNSYPLTFGGGTKVEIK
Take B8: the MFI was 80 in assay [8], 87.2 in assay [9] and 19.5 in assay [10].
